Experiment [1] has as its target hROR2ECD-his (human) (UniProt Q01974). Briefly: ELISA, plate coated with hROR2 ECD-his; isotype control. In general terms: An ELISA detects its analyte on a solid surface through an enzyme-linked reagent.
Experiment [2] has as its target Human ROR1-ECD-his (human) (UniProt Q01973). Description: ELISA, plate coated with hROR1 ECD-his; isotype control.
The target of experiment [3] is human ROR1 (hROR1) on cells (human) (UniProt Q01973). Description: FACS, A549 cells; isotype control. (In flow cytometry, cells or beads pass a laser one at a time.)
Sequence of human ROR1 (hROR1) on cells (human) (Q01973 30-937): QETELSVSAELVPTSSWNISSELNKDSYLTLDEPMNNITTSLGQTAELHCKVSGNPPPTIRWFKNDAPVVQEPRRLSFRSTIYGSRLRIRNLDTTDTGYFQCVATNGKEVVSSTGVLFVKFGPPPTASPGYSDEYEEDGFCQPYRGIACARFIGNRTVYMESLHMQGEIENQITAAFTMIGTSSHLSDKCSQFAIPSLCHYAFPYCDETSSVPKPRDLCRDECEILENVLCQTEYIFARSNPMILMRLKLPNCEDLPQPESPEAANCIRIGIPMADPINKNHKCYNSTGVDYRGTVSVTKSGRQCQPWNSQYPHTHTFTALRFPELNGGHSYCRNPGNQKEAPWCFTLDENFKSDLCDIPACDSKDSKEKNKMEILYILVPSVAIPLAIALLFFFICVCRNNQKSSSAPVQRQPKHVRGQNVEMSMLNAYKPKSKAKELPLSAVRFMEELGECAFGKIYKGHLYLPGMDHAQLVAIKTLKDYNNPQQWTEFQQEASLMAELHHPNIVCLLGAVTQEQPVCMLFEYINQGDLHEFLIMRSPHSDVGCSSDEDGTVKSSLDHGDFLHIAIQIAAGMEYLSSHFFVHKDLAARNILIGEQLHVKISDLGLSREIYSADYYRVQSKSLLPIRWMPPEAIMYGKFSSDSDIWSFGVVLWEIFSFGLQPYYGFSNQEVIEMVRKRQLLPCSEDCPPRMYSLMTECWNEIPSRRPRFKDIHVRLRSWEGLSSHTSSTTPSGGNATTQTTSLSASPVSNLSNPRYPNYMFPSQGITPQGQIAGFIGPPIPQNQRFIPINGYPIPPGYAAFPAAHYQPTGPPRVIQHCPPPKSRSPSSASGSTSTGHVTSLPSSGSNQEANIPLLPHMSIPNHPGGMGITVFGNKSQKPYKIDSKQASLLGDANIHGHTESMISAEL
Experiment [4] has the same target. Briefly: cell-based or functional assay.
Experiment [5] deals with cynomolgus ROR1 (cynoROR1) on CHO-K1 cells (cynomolgus). Description: FACS, CHO-K1-cynoROR1 cells; isotype control.
Experiment [6] addresses human ROR1 (hROR1) on cells (human) (UniProt Q01973). Briefly: FACS, HEK293T-hROR1 cells; isotype control.

Data on 1 substance can be found in patent US20240010721A1.

“And” between values parts separate entries of the source, which are not always exact repeats. Equal values may be shown once.

Sequence of hROR2ECD-his (human) (Q01974 34-403): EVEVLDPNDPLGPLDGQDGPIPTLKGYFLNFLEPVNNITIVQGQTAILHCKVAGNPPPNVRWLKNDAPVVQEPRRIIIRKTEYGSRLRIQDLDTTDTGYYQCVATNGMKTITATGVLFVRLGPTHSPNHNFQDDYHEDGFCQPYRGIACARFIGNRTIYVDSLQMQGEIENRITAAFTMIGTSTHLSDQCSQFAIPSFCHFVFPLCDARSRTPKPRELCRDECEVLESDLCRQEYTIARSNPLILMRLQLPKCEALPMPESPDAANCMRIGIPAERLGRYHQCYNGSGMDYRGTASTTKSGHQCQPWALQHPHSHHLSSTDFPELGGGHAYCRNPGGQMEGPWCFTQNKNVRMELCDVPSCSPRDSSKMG
Sequence of Human ROR1-ECD-his (human) (Q01973 30-406): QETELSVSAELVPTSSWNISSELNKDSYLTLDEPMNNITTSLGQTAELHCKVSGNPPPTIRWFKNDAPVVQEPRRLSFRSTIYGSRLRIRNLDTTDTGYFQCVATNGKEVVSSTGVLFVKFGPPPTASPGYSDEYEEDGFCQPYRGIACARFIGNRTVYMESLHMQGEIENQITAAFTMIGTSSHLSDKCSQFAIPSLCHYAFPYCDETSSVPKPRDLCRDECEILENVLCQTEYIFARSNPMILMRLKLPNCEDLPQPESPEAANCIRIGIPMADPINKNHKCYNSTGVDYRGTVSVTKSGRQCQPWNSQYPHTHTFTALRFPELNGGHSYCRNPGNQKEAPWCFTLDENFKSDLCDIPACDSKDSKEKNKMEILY

The substance “human Iso IgG1 (CrownBio, Cat#: C0001-4) (antibody)” gave an ELISA signal (called MFI) in experiment [1] of 0.041. The ELISA signal (called MFI) in experiment [2] came to 0.036. Besides, in experiment [3], the MAX(MFI) came to 119 MFI. In experiment [4], this substance had an ADCC Cytotoxicity (%), Donor 1, 1 nM (negative control) of 9.89%; an ADCC Cytotoxicity (%), Donor 1, 10 nM (negative control) of 10.4%; an ADCC Cytotoxicity (%), Donor 2, 1 nM (negative control) of 10.8%; an ADCC Cytotoxicity (%), Donor 2, 10 nM (negative control) of 10.5%. In experiment [4], the ADCP, percentage of double-stained cells, 0.1 nM (control) was 6.79% and 5.59%; the ADCP, percentage of double-stained cells, 10 nM (control) is 6.53% and 7.46%. Besides, the MAX(MFI) in experiment [5] amounted to 140 MFI. This substance also registered an MAX(MFI) in experiment [6] of 226 MFI.
